The record followed here is IntAct's records for PubMed 16832058.

B1: Proliferation-associated protein 2G4 (Homo sapiens), Q9UQ80 (parent)
chain: MSGEDEQQEQTIAEDLVVTKYKMGGDIANRVLRSLVEASSSGVSVLSLCEKGDAMIMEETGKIFKKEKEMKKGIAFPTSISVNNCVCHFSPLKSDQDYILKEGDLVKIDLGVHVDGFIANVAHTFVVDVAQGTQVTGRKADVIKAAHLCAEAALRLVKPGNQNTQVTEAWNKVAHSFNCTPIEGMLSHQLKQHVIDGEKTIIQNPTDQQKKDHEKAEFEVHEVYAVDVLVSSGEGKAKDAGQRTTIYKRDPSKQYGLKMKTSRAFFSEVERRFDAMPFTLRAFEDEKKARMGVVECAKHELLQPFNVLYEKEGEFVAQFKFTVLLMPNGPMRITSGPFEPDLYKSEMEVQDAELKALLQSSASRKTQKKKKKKASKTAENATSGETLEENEAGD

In the experiment the parent is B1. To be noted: with erbb3_rat Erbb3, Q62799.
Chain of erbb3_rat Erbb3, Q62799 (Q62799 whole entry): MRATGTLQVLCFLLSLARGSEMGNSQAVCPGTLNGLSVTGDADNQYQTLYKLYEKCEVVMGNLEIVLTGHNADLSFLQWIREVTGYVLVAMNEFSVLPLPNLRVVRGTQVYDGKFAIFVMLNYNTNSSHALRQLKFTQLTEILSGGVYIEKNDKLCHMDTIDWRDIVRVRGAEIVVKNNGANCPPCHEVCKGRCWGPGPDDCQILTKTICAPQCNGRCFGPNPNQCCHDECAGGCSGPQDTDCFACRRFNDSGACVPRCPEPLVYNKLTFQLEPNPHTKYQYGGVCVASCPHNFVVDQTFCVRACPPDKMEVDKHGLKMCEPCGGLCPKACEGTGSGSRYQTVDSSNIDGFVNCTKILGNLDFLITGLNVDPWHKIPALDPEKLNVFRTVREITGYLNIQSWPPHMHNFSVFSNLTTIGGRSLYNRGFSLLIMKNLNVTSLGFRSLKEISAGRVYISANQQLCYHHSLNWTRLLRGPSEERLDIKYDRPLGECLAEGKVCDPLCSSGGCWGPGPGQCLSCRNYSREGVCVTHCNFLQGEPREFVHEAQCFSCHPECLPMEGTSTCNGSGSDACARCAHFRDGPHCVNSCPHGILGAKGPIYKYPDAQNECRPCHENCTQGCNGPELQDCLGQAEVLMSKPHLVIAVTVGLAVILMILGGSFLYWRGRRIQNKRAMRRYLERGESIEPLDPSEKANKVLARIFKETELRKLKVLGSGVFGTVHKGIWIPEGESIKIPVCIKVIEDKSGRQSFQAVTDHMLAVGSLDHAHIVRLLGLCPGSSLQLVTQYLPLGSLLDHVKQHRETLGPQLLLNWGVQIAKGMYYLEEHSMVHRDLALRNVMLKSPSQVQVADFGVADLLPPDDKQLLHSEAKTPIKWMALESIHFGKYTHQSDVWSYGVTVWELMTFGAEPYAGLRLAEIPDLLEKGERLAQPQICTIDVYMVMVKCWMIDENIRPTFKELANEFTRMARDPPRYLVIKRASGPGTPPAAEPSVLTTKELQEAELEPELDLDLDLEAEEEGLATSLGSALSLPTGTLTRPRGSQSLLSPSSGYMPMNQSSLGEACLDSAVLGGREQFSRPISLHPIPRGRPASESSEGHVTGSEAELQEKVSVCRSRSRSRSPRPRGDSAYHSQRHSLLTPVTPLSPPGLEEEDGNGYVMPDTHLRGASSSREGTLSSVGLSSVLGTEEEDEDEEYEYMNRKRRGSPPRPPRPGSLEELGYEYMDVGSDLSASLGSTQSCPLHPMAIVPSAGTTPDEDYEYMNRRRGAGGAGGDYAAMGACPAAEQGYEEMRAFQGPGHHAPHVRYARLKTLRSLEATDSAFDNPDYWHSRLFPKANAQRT
Take MSGEDEQQEQTIAEDLVVTKYKMGGDIANRVLRSLVEASSSGVSVLSLCEKGDAMIMEETGKIFKKEKEMKKGIAFPTSISVNNCVCHFSPLKSDQDYILKEGDLVKIDLGVHVDGFIANVAHTFVVDVAQGTQVTGRKADVIKAAHLCAEAALRLVKPGNQNTQVTEAWNKVAHSFNCTPIEGMLSHQLKQHVIDGEKTIIQNPTDQQKKDHEKAEFEVHEVYAVDVLVSSGEGKAKDAGQRTTIYKRDPSKQYGLKMKTSRAFFSEVERRFDAMPFTLRAFEDEKKARMGVVECAKHELLQPFNVLYEKEGEFVAQFKFTVLLMPNGPMRITSGPFEPDLYKSEMEVQDAELKALLQASASRKTQKKKKKKASKTAENATSGETLEENEAGD [S360A]: the “effect of a mutation on the interaction” value was “disrupting interaction strength”.
